Two molecules from patent publication US20240400663A1 (Regeneron, published 2024) can be followed below.

Common to all, as to assay: cell-based or functional assay
The target of assay [1] is T1, PfRH5 of Plasmodium falciparum strain 7G8 (on live parasites) (Plasmodium falciparum).
For assay [2], the target named is T2, PfRH5 of Plasmodium falciparum strain Dd2 (on live parasites) (Plasmodium falciparum).
Assay [3] addresses PfRH5 of Plasmodium falciparum strain HB3 (on live parasites) (Plasmodium falciparum).
In assay [4] the target is PfRH5 of Plasmodium falciparum strain W2-mef (on live parasites) (Plasmodium falciparum).
The target of assay [5] is PfRH5 of Plasmodium falciparum strain Cam3.II (on live parasites) (Plasmodium falciparum).
Assay [6] deals with PfRH5 of Plasmodium falciparum strain RF7 (on live parasites) (Plasmodium falciparum).
Assay [7] has as its target T3, PfRH5 of Plasmodium falciparum strain FCR-1/FVO (on live parasites) (Plasmodium falciparum).
The target in assay [8] is PfRH5 of Plasmodium falciparum strain D10 (on live parasites) (Plasmodium falciparum).
Assay [9] deals with T1, PfRH5 of Plasmodium falciparum strain …. The source holds these as a separate data set.
The target in assay [10] is T3, PfRH5 of Plasmodium falciparum strain …. The source holds these as a separate data set.
Assay [11] concerns the target T2, PfRH5 of Plasmodium falciparum strain …. This is another data set of the same source.

B1: H1H29089P (antibody, V domains shown)
VH: EVQLVQSGAEVKKPGESLKISCKGSGYSFTSYWIVWVRQMPGKGLEWMGIIYPGDSDTRYSPSFQGQVTISADKSISTAYLQWSSLKASDTAMYYCARQDITGTTGFDYWGQGTLVTVSS
VL: DIQMTQSPSSLSASVGDRVTITCRASQSIRNYLNWYQQKPGKAPKLLIYAASSLQSGVPSRFSGSGSGTDFTLTISSLQPEDFATYFCQQSYSTPFTFGPGTKVDIKR
For B1, in assay [1], the “Max growth inhibition (%) 7G8, no chloroquine” value was determined as 51.1%. In [2], the “Max growth inhibition (%) Dd2” value is 71.3%. In addition, in assay [3], the “Max growth inhibition (%) HB3” value was 59.1%. Moreover, the “Max growth inhibition (%) W2-mef” value in assay [4] was found to be 66.4%. The “Max growth inhibition (%) Cam3.II” value in assay [5] was found to be 56.2%. Also, in assay [6], the “Max growth inhibition (%) RF7” value worked out at 28.9%. The “Max growth inhibition (%) FCR-1/FVO” value in assay [7] was determined as 66%. Besides, the “Max growth inhibition (%) D10” value in [8] was 82.3%. Moreover, the “Max growth inhibition (%) 7G8” value in [9] amounted to 70.1%. Moreover, in assay [10], the “Percent Maximum Growth Inhibition, FCR-1/FVO, mAb (6.67 µM) + AHIS (10%)” value was found to be 84.3%; the “Percent Maximum Growth Inhibition, FCR-1/FVO, mAb (6.67 µM) + ANS (10%)” value came out at 75.7%; the “Percent Maximum Growth Inhibition, FCR-1/FVO, mAb (6.67 µM) + HHIS (10%)” value is 85.2%; the “Percent Maximum Growth Inhibition, FCR-1/FVO, mAb (6.67 µM) + HNS (10%)” value was 85%. For the same molecule, the “Percent Maximum Growth Inhibition, FCR-1/FVO, mAb (6.67 µM) + No serum” value in assay [10] stood at 85.3%.

B2: H1H29100P (antibody, V domains shown)
VH: QLQLQESGPGLVKPSETLSLTCTVSGGSISSSSYYWGWIRQPPGKGLEWIGIIYYSGSTYYNPSLKSRVTISVDTSKNQFSLKLSSVTAADTAVYYCARQDREALFDYWGQGTLVTVSS
VL: EIVLTQSPDFQSVTPKEKVTITCRASQRIGSSLHWYQQKPDQSPKLLIKYASQSFSGVPSRFSGSGSGTDFTLTINSLEAEDAATYYCHQSSTLPTFGQGTRLEIKR
Regarding B2, the “Max growth inhibition (%) 7G8, no chloroquine” value in [1] is 48.9%. Moreover, the “Maximum growth inhibition (%) Dd2” value in assay [11] is 65.7%. In addition, in assay [2], the “Max growth inhibition (%) Dd2” value is 64.6%. Also, the “Max growth inhibition (%) HB3” value in assay [3] turned out to be 62.6%. In addition, in assay [4], the “Max growth inhibition (%) W2-mef” value is 67.3%. Moreover, in assay [5], the “Max growth inhibition (%) Cam3.II” value was found to be 52.4%. Moreover, in assay [6], the “Max growth inhibition (%) RF7” value came out at 17%. In addition, in [7], the “Max growth inhibition (%) FCR-1/FVO” value stood at 66.9%. The “Max growth inhibition (%) D10” value in assay [8] was found to be 81.7%. Also, the “Max growth inhibition (%) 7G8” value in assay [9] was 66.4%. Moreover, in assay [10], the “Percent Maximum Growth Inhibition, FCR-1/FVO, mAb (6.67 µM) + AHIS (10%)” value was determined as 82.5%; the “Percent Maximum Growth Inhibition, FCR-1/FVO, mAb (6.67 µM) + ANS (10%)” value amounted to 73.2%; the “Percent Maximum Growth Inhibition, FCR-1/FVO, mAb (6.67 µM) + HHIS (10%)” value worked out at 81.9%; the “Percent Maximum Growth Inhibition, FCR-1/FVO, mAb (6.67 µM) + HNS (10%)” value came out at 82.4%. In assay [10], the “Percent Maximum Growth Inhibition, FCR-1/FVO, mAb (6.67 µM) + No serum” value came to 83.9%.
